Measured values taken from patent US6258776A, “Calcium-regulated kinase” (priority 1997, dated 2001).
“Also recorded” adds a separate entry of the source.

Assays:
[1] = test system: HA-Ndr WT; experiment: A23187 treatment of COS-1 cells co-expressing HA-Ndr WT and S100B, Ndr kinase activity; assay type: cell-based; conditions: 20 μM A23187
Experimental: In order to provide direct evidence that Ca^2+ /S100B regulates Ndr activity in vivo, COS-1 cells are co-transfected with expression constructs for Ndr and S100B (pECE-HA-Ndr, which expresses haemaglutinin epitope-tagged Ndr from an SV40 promoter, and pECE-S100B). Two Ndr constructs are used, expressing either wild-type Ndr (Ndr WT) or Ndr lacking the previously identified S100B binding domain (Ndr Δ65-81).Then, the cells are treated for various lengths of time with 20 μM A23187, a calcium ionophore.

[2] = test system: HA-Ndr WT; conditions: 10 nM, 1 h
Experimental: COS-1 cells expressing HA-Ndr WT (as in Example 5) are treated either with solvent alone (Control) or with a panel of cell permeable protein phosphatase inhibitors. The cells are then extracted, HA-Ndr is immunoprecipitated with the anti-HA mAb 12CA5, and the kinase activity of Ndr measured as before, using the peptide substrate.

[3] = test system: PP2A; conditions: 10 nM calyculin A; cited from earlier work
[4] = test system: protein phosphatase 1 (PP1); conditions: 10 nM calyculin A; cited from earlier work
[5] = molecular target: T1, GST-Ndr (Homo sapiens, UniProt Q15208); experiment: Ndr peptide substrate phosphorylation assay; assay type: biochemical; conditions: 0.5 mg/ml peptide, 3 h at 30° C., KKRNRRLSVA = 100%
T1 construct: made in house
Experimental: When incubated in vitro with Mg-ATP, Ndr incorpora tes phosphate by an intramolecular autophosphorylation mechanism (Millward, T. A., et al., (1995) Proc. Natl. Acad. Sci. USA 92, 5022-5026). […] To develop a convenient in vitro kinase assay for Ndr, an assembled library of synthetic peptides is screened for potential Ndr substrates. 5 μg GST-Ndr WT or GST-Ndr K118A (Miliward, T. A., et al., (1995) Proc. Natl. Acad. Sci. USA 92, 5022-5026), immobilised on 2.5 μl glutathione-agarose beads (Sigma), is assayed in a 25 μl reaction containing 50 mM Tris-HCl pH 7.5, […] MgCl2, 1 mM dithiothreitol, 100 μM [γ-^32 P] ATP (0.3 μCi/μl) and 0.5 mg/ml peptide. After incubation at 3 h at 30° C. (during which time phosphate incorporation into peptides is linear), aliquots of the reaction are spotted onto 2 cm^2 squares of P81 phosphocellulose paper (Whatman), which are then washed 5×5 min in 1% phosphoric acid and once in acetone, before counting in a liquid scintillation counter.
Several peptides are identified which could serve as Ndr substrates (Table 1; SEQ. ID. No. 1 to 31). By comparing the efficiency of phosphorylation of the various peptides, several conclusions regarding the substrate specificity of Ndr can be drawn. […] Secondly, most of the peptides which are detectably phosphorylated contained a basic amino acid at position -6 relative to the phosphoaccepting serine. […] A basic amino acid at -6 is however not sufficient for substrate recognition, since this peptide is also not phosphorylated. Thirdly, a basic residue at -5 appeared to be also important, although not essential, for efficient phosphorylation by Ndr. Basic amino acids at -3, -2 and -7 are also important. Proline at +1 appears to be inhibitory, whilst the presence of amino acids carboxy-terminal to the phosphoacceptor is important, removal of the residue at +2 reducing activity. The best Ndr substrate from these series of peptides is ([…], SEQ. ID. No. 1), and this peptide is used for Ndr kinase assays in subsequent experiments.

[6] = molecular target: T1, GST-Ndr; experiment: GST-Ndr peptide kinase assay with calcium-binding proteins; assay type: biochemical; conditions: added together with Ca^2+; 60 min, 30° C.
Experimental: 1 μg GST-Ndr WT or GST-Ndr K118A, either in solution or immobilised on glutathione-agarose beads, is assayed in a 20 μl reaction containing 20 mM Tris-HCl pH 7.5, 5 mM MgCl2, 1 mM dithiothreitol, 100 μM [γ-^32 P] […] Reactions are supplemented with either 2 mM EGTA or various concentrations of CaCl2. Bovine CaM, bovine S100B (both from Sigma) or recombinant calcium-binding proteins. After incubation at 30° C. for 60 min, aliquots of the reaction are spotted on to P81 phosphocellulose paper and counted as above.
In brief, coding regions are cloned into the PGEMEX expression vector (Promega) and resultant plasmids used to transform E. coli BL-21 LysS cells. After induction, S100 proteins are purified by ammonium sulphate precipitation followed by Ca^2+ -dependent phenyl-Sepharose chromatography.
The proteins are added together with Ca^2+ into GST-N dr peptide kinase assays. The proteins tested comprised S100A1 (S100α), S100A2 (S100L), S100A4 (CAPL), S100A6 (calcyclin) and S100B (S100β); α-parvalbumin is included as a negative control.
In order to estimate the binding affinity of S100B for Ndr, kinase assays are performed in which GST-Ndr is mixed with various concentrations of purified bovine S100B homodimer, in the presence or absence of calcium.
To determine whether activation of Ndr by S100B occurs at physiological Ca^2+ concentrations, Ndr activity is assayed with or without added S100B over a range of Ca^2+ concentrations.

[7] = test system: Ndr; conditions: transphosphorylation; cited from earlier work
[8] = test system: S100B; experiment: co-immunoprecipitation of Ndr with anti-S100B from COS-1 cells; assay type: cell-based; conditions: co-expressed with S100B
Experimental: For expression of Ndr and S100B in mammalian cells, the cDNAs encoding Ndr and S100B are cloned into the pECE vector, which directs expression driven by an SV40-derived promoter. In addition, an amino-terminal truncation mutant of Ndr lacking the first 84 amino acids (1-84) is used.
The plasmids encoding Ndr and S100B are transfected into COS-1 cells, either alone or in combination. Seventy-two hours later, cells extracts are prepared and immunoprecipitated with an antibody recognising S100B. In an anti-Ndr western blot of the cell extracts, it is shown that Ndr is expressed an expected.

[9] = immune complex kinase assay, basal kinase activity of Ndr mutants; assay type: biochemical; conditions: compared with wild-type Ndr
Experimental: In immune complex kinase assays and autophosphorylation assays (see below), COS-1 cells are transfected as described above or with pECE-Ndr-K118A. After 72 h, cells are washed with ice-cold PBS and lysed in lysis buffer (20 mM Tris-HCl pH 8.0, 150 mM NaCl, 1% (v/v) NP-40, 10% (v/v) glycerol, 5 mM EDTA, 0.5 mM EGTA, 0.5 mM phenylmethyl-sulfonyl fluoride, 4 μM leupeptin, 1 mM benzamidine, 1 μM microcystin and 1 mM Na3 VO4). Lysates are centrifuged at 14,000 g for 20 min. Duplicate aliquots of supernatant (250 μg, 2.5 mg/ml) are incubated for 2 h at 0° C. with 10 μg/ml Ab^1-465. Immune complexes are precipitated by addition of 2 μl protein A-Sepharose (Pharmacia) and mixing for 1 h. The beads are then washed twice with lysis buffer, once with lysis buffer containing 1 M NaCl, with lysis buffer again, and finally twice with 20 mM Tris-HCl pH 7.5. Beads are resuspended in 30 μl buffer containing 20 mM Tris-HCl pH 7.5, 10 mM MgCl2, 100 μM CaCl2, 1 mM dithiothreitol, 100 μM [γ-^32 P] ATP (0.5 μCi/μls), 1 mM Ndr substrate peptide ([…], SEQ. ID. No. 1), 1 μM cAMP-dependent protein kinase inhibitor peptide (PKI; purchased from Bachem, Bubendorf, Swit zerland), 4 μM leupeptin, 1 mM benzamidine, 1 μM microcystin and, in some assays, 20 μM bovine S100B. After 60 min at 30° C., phosphate incorporation into the peptide is quantitated as described above. […]

[10] = test system: calmodulin (CaM-agarose); experiment: binding of Ndr and deletion mutants from COS-1 cell lysates to CaM-agarose; conditions: lysates supplemented with Ca^2+
Description: In addition, the ability of untagged Ndr to interact with CaM is investigated. COS-1 cells are transfected with pECE or with derivative plasmids encoding wild-type Ndr, NdrΔ65-81 or NdrΔ1-84 (Millward, T. A., et al., (1995) Proc. Natl. Acad. Sci. USA 92, 5022-5026) using DEAE-dextran (Seed, B. and Aruffo, A. (1987) Proc. Natl. Acad. Sci. USA 84, 3365-3369). Seventy-two hours after transfection, cells are scraped into ice-cold phosphate-buffered saline (PBS), spun down, and disrupted in buffer A (TBS containing 1 mM dithiothreitol, 0.5 mM phenylmethylsulfonyl fluoride, 4 μM leupeptin and 1 mM benzamidine) using a tight-fitting all-glass dounce homogenizer. Extracts (20 μg) are adjusted to 1 mg/ml, supplemented with either 1 mM CaCl2 or 1 mM EGTA and then mixed for 2 h with 6 μl CaM-agarose. After washing three times with 1 ml of the corresponding binding buffer, the beads are eluted with buffer A containing 5 mM EGTA. Equal portions of the unbound and EGTA-eluted fractions are analysed by immunoblofting with anti-Ndr antibodies.
Samples are separated by SDS-PAGE and electroblotted to Immobilon-P membranes (Millipore). Blots are incubated in blocking buffer (50 mM Tris-HCl pH 7.5, 150 mM NaCl, 1% (v/v) Triton X-1 00, 0.5% (v/v) Tween 20, 5% (w/v) skim milk powder) and then probed for 2 h with primary antibodies diluted in the same buffer. Ndr and GST-Ndr are detected with Ab^452-465 at 4 μg/ml (Millward, T. A., et al., Op. Cit.); GST is detected with an anti-GST antiserum (1 :1000 dilution). Bound antibodies are detected using horseradish peroxidase-conjugated donkey anti-rabbit IgG antibodies and ECL substrates (Amersham).
To verify whether this domain of Ndr is indeed responsible for its interaction with CaM, deletion mutants of Ndr are expressed in COS-1 cells and tested for CaM binding as above. […] In lysates supplemented with Ca^2 , deletion of amino acids 65-81 cause a large reduction in CaM binding (to ~10% of the level of wild-type binding) as assessed by western blotting.

T1 sequence (Q15208 whole entry): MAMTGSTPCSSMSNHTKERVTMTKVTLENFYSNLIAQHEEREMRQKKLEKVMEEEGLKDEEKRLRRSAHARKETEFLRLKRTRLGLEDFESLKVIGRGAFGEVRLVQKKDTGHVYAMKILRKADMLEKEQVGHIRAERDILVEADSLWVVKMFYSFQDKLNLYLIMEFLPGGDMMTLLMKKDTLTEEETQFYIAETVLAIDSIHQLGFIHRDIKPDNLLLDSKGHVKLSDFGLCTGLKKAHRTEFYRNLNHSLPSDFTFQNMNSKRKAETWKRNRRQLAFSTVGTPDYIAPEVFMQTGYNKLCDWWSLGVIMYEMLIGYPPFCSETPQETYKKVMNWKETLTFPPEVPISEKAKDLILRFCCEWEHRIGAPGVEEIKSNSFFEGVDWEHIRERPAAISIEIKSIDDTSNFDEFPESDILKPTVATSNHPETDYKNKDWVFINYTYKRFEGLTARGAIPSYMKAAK

Compound | Relative Ndr Activity [5] [%] | also measured
CNc1ccc2oc(C[C@H]3O[C@@]4(CC[C@H]3C)O[C@H]([C@H](C)C(=O)c3ccc[nH]3)[C@H](C)C[C@H]4C)nc2c1C(=O)O [A23187] | – | activation of HA-Ndr [1]: activation of HA-Ndr WT
COC[C@@H]([C@H](O)[C@H](O)C(=O)NCC[C@H](C)c1nc(/C=C/C[C@@H]2O[C@]3(C[C@@H](O)[C@@H]2C)O[C@H]([C@H](C[C@H](O)[C@H](C)[C@H](O)[C@H](C)/C=C(C)/C(C)=C/C=C/C(C)=C\C#N)OC)[C@H](OP(=O)(O)O)C3(C)C)co1)N(C)C [calyculin A] | – | activation of Ndr [2]: ~ 4 fold; inhibition of PP2A [3]: ~ 50%; inhibition of PP1 [4]: ~ 50%
AARNRTLSVA [SEQ. ID. No. 7] | 0 | –
KARNRRLSVA (LARNRRLSVA) [SEQ. ID. No. 2] | 39 | –
KKLNRRLSVA [SEQ. ID. No. 3] | 18 | –
KKRNARLSVA [SEQ. ID. No. 4] | 15 | –
KKRNRALSVA [SEQ. ID. No. 5] | 30 | –
KKRNRRLSVA [SEQ. ID. No. 1] | 100 | –
KKRNRTLSPA [SEQ. ID. No. 10] | 0 | –
KKRNRTLSV [SEQ. ID. No. 8] | 24 | –
KKRNRTLSVA [SEQ. ID. No. 6] | 60 | –
KKRNRTLTV [SEQ. ID. No. 9] | 0 | –
S100A1: S100 family protein, phylogenetically the closest known relative of S100B | – | increase in Ndr kinase activity [6]: 2-3 fold
casein | – | substrate of Ndr [7]: not substrates of Ndr
myelin basic protein | – | substrate of Ndr [7]: not substrates of Ndr
Δ1-84: Ndr deletion mutant lacking the complete amino terminal domain | – | co-immunoprecipitation with anti-S100B [8]: abolishes co-immunoprecipitation; basal kinase activity [9]: only slightly reduced; also recorded: reduced basal kinase activity; binding to CaM-agarose [10]: no longer detectable
